The numbers were not newly measured in patent US12576131B2, “Altering inflammatory states of immune cells in vivo by modulating cellular activation states” (Fred Hutchinson Cancer Center, priority 2018, dated 2026), which cites them from elsewhere.

In this data set the test system is IRF8 responsive genes. The following applies: mutation of the K310 residue prevents SUMO binding.

B1: murine IRF8 mutant: murine IRF8 with substitution of Lysine (K) at residue 310 with Arginine (R), SEQ ID NO: 17 (protein)
chain: MCDRNGGRRLRQWLIEQIDSSMYPGLIWENDEKTMFRIPWKHAGKQDYNQEVDASIFKAWAVFKGKFKEGDKAEPATWKTRLRCALNKSPDFEEVTDRSQLDISEPYKVYRIVPEEEQKCKLGVAPAGCMSEVPEMECGRSEIEELIKEPSVDEYMGMTKRSPSPPEACRSQILPDWWVQQPSAGLPLVTGYAAYDTHHSAFSQMVISFYYGGKLVGQATTTCLEGCRLSLSQPGLPKLYGPDGLEPVCFPTADTIPSERQRQVTRKLFGHLERGVLLHSNRKGVFVKRLCQGRVFCSGNAVVCKGRPNRLERDEVVQVFDTNQFIRELQQFYATQSRLPDSRVVLCFGEEFPDTVPLRSKLILVQVEQLYARQLVEEAGKSCGAGSLMPALEEPQPDQAFRMFPDICTSHQRPFFRENQQITV
For the molecule B1, the “increase in IRF8 specific gene transcription” value was 2-5 fold.
